{"source": "patent US6485904", "molecules": {"B1": {"name": "GST-PauA^28-286 fusion protein (pER356) (protein)", "chain": "GYDSDYYARYIDPDENKITFAINVDGFVEGSNQEILIRGIHHVLTNQNQKIVTKAELLDAIRHQMVLLQLDYSYELVDFAPDAQLLTRDRRLLFANRNFEESVSLEDTIQEYLLKGHVILRKRVEEPITHPTETANIEYKVQFATKDGEFHPLPIFVDYGEKHIGEKLTSDEFRKIAEEKLLQRYPDYMIDQKEYTIIKHNSLGQLPRYYSYPDDFSYEIQDRQRIMAKDPKSGKELGETQSIDNVFEKYLITKKSYKP"}, "B2": {"name": "PauA from S. uberis strain c216 expressed by E. coli strain Pz318 (plasmid pER318) (protein)", "chain": "MKKWFLILMLLGIFGCATQPSKVAAITGYDSDYYARYIDPDENKITFAINVDGFVEGSNQEILIRGIHHVLTDQNQKIVTKAELLDAIRHQMVLLQLDYSYELVDFAPDAQLLTQDRRLLFANQNFEESVSLEDTIQEYLLKGHVILRKRVEEPITHPTETANIEYKVQFATKDGEFHPLPIFVDYGEKHIGEKLTSDEFRKIAEEKLLQLYPDYMIDQKEYTIIKHNSLGQLPRYYSYQDHFSYEIQDRQRIMAKDPKSGKELGETQSIDNVFEKYLITKKSYKP"}, "B3": {"name": "PauA from S. uberis strain 95-140 expressed by E. coli strain Pz319 (plasmid pER319) (protein)", "chain": "B2 chain with D73N, Q115R, Q124R, L211R, Q240P, H242D"}}, "key": {"[1]": {"molecular_target": "bovine plasminogen (bovine) (UniProt P06868)", "assay": "cell-based or functional assay"}, "[2]": {"molecular_target": "bovine plasminogen (UniProt P06868)"}, "[3]": {"molecular_target": "T1, bovine plasminogen, P06868", "T1 chain": "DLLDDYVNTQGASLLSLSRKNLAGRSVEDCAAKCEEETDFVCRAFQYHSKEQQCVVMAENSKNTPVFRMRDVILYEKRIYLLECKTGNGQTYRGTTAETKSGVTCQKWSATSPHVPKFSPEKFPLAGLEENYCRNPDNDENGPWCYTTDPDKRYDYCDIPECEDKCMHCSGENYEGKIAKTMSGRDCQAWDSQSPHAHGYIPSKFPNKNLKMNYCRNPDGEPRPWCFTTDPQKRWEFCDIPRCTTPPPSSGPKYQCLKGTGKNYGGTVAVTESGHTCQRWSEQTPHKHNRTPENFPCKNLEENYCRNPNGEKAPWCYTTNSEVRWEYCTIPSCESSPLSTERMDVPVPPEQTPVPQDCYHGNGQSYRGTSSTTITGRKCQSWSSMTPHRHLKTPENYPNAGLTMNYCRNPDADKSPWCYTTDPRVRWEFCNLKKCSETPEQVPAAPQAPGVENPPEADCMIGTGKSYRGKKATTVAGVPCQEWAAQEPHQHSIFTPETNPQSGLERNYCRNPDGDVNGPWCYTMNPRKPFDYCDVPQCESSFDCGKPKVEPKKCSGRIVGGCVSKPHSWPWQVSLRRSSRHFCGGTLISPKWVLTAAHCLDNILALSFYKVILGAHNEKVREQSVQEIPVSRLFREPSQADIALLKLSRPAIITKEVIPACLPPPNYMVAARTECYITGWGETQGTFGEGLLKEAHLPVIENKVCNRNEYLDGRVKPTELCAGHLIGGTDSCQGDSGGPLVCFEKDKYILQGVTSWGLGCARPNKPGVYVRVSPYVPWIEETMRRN"}}, "note": "Substitutions are numbered along the chain they refer to."}
{"molecule": "full-length recombinant PauA of S. uberis strain 95-140 expressed from pER326 in E. coli strain Pz326 (enzyme)", "values": [{"measurement": "Titer, chromogenic assay of whole cell pellet (titer (inverse of dilution factor))", "setting": "[1]", "result": 23.3}]}
{"molecule": "signal peptide-deleted recombinant PauA of S. uberis strain 95-140 expressed from pER328 in E. coli strain Pz328 (enzyme)", "values": [{"measurement": "Titer, chromogenic assay of whole cell pellet (titer (inverse of dilution factor))", "setting": "[1]", "result": 5.3}]}
{"molecule": "full-length recombinant PauA of S. uberis strain 95-140 expressed from pER330 in E. coli strain Pz330 (enzyme)", "values": [{"measurement": "Titer, chromogenic assay of whole cell pellet (titer (inverse of dilution factor))", "setting": "[1]", "result": 1}]}
{"molecule": "purified native PauA (strain not stated where used)", "values": [{"measurement": "enzymatic activity, chromogenic assay titer", "setting": "[2]", "result": "titer=3256"}, {"measurement": "specific activity", "setting": "[2]", "result": "the specific activity for native PauA was 5.9 chromogenic units/µg"}]}
{"molecule": "B1", "values": [{"measurement": "enzymatic activity, chromogenic assay titer", "setting": "[3]", "result": "titer=3448"}, {"measurement": "specific activity", "setting": "[3]", "result": "the specific activity of GST-PauA^28-286 was 1.4"}]}
{"molecule": "B2", "values": [{"measurement": "zone of clearing on skim-milk plates with or without bovine plasminogen", "setting": "[3]", "result": "their ability to express plasminogen-dependent PauA activity was confirmed by their inability to produce a zone of clearing following growth of individual colonies on plasminogen-free skim-milk plates"}]}
{"molecule": "B3", "values": [{"measurement": "zone of clearing on skim-milk plates with or without bovine plasminogen", "setting": "[3]", "result": "their ability to express plasminogen-dependent PauA activity was confirmed by their inability to produce a zone of clearing following growth of individual colonies on plasminogen-free skim-milk plates"}]}
